# In patent US20090304768A1, “Gastro-Retentive System for the Delivery of Macromolecules” (INTEC PHARMA LTD, priority 2006, published 2009):
# How the values were obtained:
# [1] = Stability assay of PTH 1-34 in various buffer solutions over 24 hr at 37° C.; type: physicochemical
# Procedure: The stability of PTH 1-34 in various buffer solutions over 24 hr at 37° C. was evaluated to allow selection of a suitable buffer for in vitro release experiments. The lyophilized peptide (0.1 mg) was dissolved in each buffer solution that was tested. The concentration of PTH 1-34 in samples withdrawn from the solution at 0, 4, 8, and 24 hours were analyzed by HPLC (Gemini (Phenomenex) 5 μ C18, 250×4.6; mobile phase˜0.1% Trifluoroacetic acid/Acetonotrile:0.1% Trifluoroacetic acid/Water, gradient elution, 1 mL/min; 100 μL injection, UV PDA detection at 214).
# [2] = Stability of the peptide in 1% acid solution, incubation for 24 hr at 37° C.; type: physicochemical; details: 1% acetic acid
# Procedure: PTH 1-34 (molecular weight of 4117.8, UCB Bioproducts, USA) was received as a lyophilized powder. The peptide was made up in 1% acetic acid. The stability of the peptide in 1% acid solution was confirmed by incubating it for 24 hr at 37° C.
substance,measurement,setting,value
"PTH 1-34: Parathyroid hormone fragment 1-34, molecular weight 4117.8, UCB Bioproducts, lyophilized powder",stability at pH=2.2 over 24 hr,"[1]; KCl/Cl buffer pH=2.2, over 24 hr",stable
same,stability at pH=1.2,"[1]; buffer pH=1.2, 37° C.",decreased stability
same,stability at pH>7,"[1]; buffer pH>7, 37° C.",decreased stability
same,stability in various buffer solutions,"[1]; various buffer solutions, 24 hr at 37° C.",stable over a wide range of pH values
same,stability of the peptide in 1% acid solution,[2],confirmed
